Patent US20220010021A1 (Sanofi, published 2022)

T1: human beta-Klotho (KLB) (human, UniProt Q86Z14 53-997)
T1 construct: Bought protein; also called human KLB; β-Klotho
T1 sequence (looked up): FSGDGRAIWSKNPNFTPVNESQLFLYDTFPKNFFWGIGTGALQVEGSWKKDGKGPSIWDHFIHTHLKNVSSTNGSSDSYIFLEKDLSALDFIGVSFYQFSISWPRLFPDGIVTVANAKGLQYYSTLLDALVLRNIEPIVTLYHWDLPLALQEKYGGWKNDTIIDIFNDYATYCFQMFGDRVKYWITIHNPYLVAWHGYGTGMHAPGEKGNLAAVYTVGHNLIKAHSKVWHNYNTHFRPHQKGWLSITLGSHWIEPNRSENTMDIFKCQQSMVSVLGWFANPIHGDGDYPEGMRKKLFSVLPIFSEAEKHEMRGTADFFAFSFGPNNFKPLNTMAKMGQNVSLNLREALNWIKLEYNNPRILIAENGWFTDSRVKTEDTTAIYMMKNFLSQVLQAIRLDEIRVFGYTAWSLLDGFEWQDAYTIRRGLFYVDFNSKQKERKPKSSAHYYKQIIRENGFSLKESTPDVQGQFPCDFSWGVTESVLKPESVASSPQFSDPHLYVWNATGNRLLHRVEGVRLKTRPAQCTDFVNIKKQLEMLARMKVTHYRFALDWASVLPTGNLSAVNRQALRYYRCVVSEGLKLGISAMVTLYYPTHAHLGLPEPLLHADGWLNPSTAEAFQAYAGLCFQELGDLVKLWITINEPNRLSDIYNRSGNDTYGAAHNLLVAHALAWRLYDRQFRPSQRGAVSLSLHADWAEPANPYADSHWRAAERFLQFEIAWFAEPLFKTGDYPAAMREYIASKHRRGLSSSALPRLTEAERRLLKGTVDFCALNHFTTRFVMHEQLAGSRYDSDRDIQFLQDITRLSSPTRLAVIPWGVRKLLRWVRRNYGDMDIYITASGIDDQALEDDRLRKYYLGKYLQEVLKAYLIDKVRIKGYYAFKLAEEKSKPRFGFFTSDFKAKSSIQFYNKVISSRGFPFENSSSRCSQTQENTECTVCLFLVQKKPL


How the values were obtained:
human beta-Klotho (KLB) = molecular target: T1, human beta-Klotho (KLB); experiment: BLI off-rate screening (Octet), crude supernatant;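 also: supernatants tested at 25 µg/mL, dissociation from biosensors recorded in D-PBS with 0.1% BSA over 1800 s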
[1] = molecular target: cell surface receptor composed of FGFR1c and co-receptor beta-Klotho (KLB) (human, UniProt P11362 22-822; Q86Z14 1-1044); experiment: cell-based or functional assay; as to Mean E max, Luciferase reporter gene assay: reference of the scale not given here
Sequence of cell surface receptor composed of FGFR1c and co-receptor beta-Klotho (KLB) (P11362 22-822, chain 1 of 2): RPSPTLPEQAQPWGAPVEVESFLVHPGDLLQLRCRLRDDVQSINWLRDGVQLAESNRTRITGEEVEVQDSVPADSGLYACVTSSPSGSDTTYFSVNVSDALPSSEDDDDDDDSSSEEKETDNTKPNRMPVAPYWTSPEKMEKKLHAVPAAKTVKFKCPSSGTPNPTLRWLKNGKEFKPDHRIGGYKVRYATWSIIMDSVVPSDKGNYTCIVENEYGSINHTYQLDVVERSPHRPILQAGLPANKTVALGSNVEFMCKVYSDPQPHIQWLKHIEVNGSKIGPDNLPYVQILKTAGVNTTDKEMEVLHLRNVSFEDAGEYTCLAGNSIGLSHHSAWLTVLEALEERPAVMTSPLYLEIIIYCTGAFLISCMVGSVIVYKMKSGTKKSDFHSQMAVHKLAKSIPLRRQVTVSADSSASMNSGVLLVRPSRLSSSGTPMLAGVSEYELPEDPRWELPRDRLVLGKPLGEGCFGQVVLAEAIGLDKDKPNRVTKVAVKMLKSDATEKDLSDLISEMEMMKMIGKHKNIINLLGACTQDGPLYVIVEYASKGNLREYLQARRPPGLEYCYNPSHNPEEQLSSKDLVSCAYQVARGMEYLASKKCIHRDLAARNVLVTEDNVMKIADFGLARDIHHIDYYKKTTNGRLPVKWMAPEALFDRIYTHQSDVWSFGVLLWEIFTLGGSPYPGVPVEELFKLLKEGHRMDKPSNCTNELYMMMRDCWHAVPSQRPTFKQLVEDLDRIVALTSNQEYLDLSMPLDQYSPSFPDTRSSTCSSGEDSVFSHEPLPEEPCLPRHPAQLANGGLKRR
Sequence of cell surface receptor composed of FGFR1c and co-receptor beta-Klotho (KLB) (Q86Z14 whole entry, chain 2 of 2): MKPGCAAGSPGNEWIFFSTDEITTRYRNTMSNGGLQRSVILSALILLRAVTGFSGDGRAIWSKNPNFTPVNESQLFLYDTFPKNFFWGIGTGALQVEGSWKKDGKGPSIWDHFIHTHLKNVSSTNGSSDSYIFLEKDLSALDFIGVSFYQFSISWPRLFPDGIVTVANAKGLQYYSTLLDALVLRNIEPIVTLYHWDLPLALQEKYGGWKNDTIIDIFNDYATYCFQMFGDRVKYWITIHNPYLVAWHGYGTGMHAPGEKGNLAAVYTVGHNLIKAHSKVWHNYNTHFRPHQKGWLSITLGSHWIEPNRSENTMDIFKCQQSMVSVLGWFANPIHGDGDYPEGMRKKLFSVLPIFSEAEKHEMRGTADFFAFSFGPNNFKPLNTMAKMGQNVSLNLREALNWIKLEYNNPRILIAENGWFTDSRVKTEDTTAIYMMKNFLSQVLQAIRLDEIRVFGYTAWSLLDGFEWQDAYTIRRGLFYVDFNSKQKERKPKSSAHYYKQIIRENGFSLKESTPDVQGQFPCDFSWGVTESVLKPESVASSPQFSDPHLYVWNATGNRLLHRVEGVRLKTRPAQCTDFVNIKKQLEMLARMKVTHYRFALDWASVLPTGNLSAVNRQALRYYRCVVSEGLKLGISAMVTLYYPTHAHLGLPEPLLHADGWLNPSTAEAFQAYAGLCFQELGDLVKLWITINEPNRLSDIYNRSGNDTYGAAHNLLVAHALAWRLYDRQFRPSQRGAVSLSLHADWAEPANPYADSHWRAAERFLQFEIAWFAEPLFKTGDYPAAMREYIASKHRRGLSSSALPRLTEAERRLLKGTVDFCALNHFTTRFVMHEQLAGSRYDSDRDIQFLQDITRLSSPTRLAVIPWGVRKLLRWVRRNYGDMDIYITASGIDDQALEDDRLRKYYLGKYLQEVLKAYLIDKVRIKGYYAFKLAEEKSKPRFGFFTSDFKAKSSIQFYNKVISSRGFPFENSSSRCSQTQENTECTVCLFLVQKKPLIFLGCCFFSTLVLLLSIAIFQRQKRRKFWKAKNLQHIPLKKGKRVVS

Binder	koff (human beta-Klotho (KLB)) [s⁻¹]	Mean E max, Luciferase reporter gene assay [1] [%]	Mean EC50, Luciferase reporter gene assay [1] [nM]
16H7 light chain variant D50W (antibody, IgG4, V domains shown, IgG4 backbone) VH: not shown VL: SYVLTQPPSVSVAPGQTARITCGGNNIGSESVHWYQQKPGQAPVLVVYDWSDRPSGIPERFSGSNSGNTATLTISRVEAGDEADYYCQVWDGNSDHVVFGGGTKLTVLG	0.00017	108	0.145
16H7 light chain variant D50Q (antibody, IgG4, V domains shown, IgG4 backbone) VH: not shown VL: SYVLTQPPSVSVAPGQTARITCGGNNIGSESVHWYQQKPGQAPVLVVYDQSDRPSGIPERFSGSNSGNTATLTISRVEAGDEADYYCQVWDGNSDHVVFGGGTKLTVLG	7.9e-05	107	0.171
16H7 light chain variant D50Y (antibody, IgG4, V domains shown, IgG4 backbone) VH: not shown VL: SYVLTQPPSVSVAPGQTARITCGGNNIGSESVHWYQQKPGQAPVLVVYDYSDRPSGIPERFSGSNSGNTATLTISRVEAGDEADYYCQVWDGNSDHVVFGGGTKLTVLG	0.00016	113	0.157
16H7 light chain variant D50V (antibody, IgG4, V domains shown, IgG4 backbone) VH: not shown VL: SYVLTQPPSVSVAPGQTARITCGGNNIGSESVHWYQQKPGQAPVLVVYDVSDRPSGIPERFSGSNSGNTATLTISRVEAGDEADYYCQVWDGNSDHVVFGGGTKLTVLG	2.2e-05	105	0.106
16H7 light chain variant D50T (antibody, IgG4, V domains shown, IgG4 backbone) VH: not shown VL: SYVLTQPPSVSVAPGQTARITCGGNNIGSESVHWYQQKPGQAPVLVVYDTSDRPSGIPERFSGSNSGNTATLTISRVEAGDEADYYCQVWDGNSDHVVFGGGTKLTVLG	3.9e-05	104	0.12
16H7 light chain variant D95H (antibody, IgG4, V domains shown, IgG4 backbone) VH: not shown VL: SYVLTQPPSVSVAPGQTARITCGGNNIGSESVHWYQQKPGQAPVLVVYDDSDRPSGIPERFSGSNSGNTATLTISRVEAGDEADYYCQVWDGNSHHVVFGGGTKLTVLG	8.1e-06	33	29.7

Second part, the binder after the results:

koff (human beta-Klotho (KLB)) [s⁻¹]	Mean E max, Luciferase reporter gene assay [1] [%]	Mean EC50, Luciferase reporter gene assay [1] [nM]	Binder
0.00013	110	0.125	16H7 light chain variant D50M (antibody, IgG4, V domains shown, IgG4 backbone) VH: not shown VL: SYVLTQPPSVSVAPGQTARITCGGNNIGSESVHWYQQKPGQAPVLVVYDMSDRPSGIPERFSGSNSGNTATLTISRVEAGDEADYYCQVWDGNSDHVVFGGGTKLTVLG
0.00016	4	–	16H7 light chain variant D95I (antibody, IgG4, V domains shown, IgG4 backbone) VH: not shown VL: SYVLTQPPSVSVAPGQTARITCGGNNIGSESVHWYQQKPGQAPVLVVYDDSDRPSGIPERFSGSNSGNTATLTISRVEAGDEADYYCQVWDGNSIHVVFGGGTKLTVLG
0.0002	12	–	16H7 light chain variant D95A (antibody, IgG4, V domains shown, IgG4 backbone) VH: not shown VL: SYVLTQPPSVSVAPGQTARITCGGNNIGSESVHWYQQKPGQAPVLVVYDDSDRPSGIPERFSGSNSGNTATLTISRVEAGDEADYYCQVWDGNSAHVVFGGGTKLTVLG
4.1e-06	100	0.118	16H7 light chain variant D50S (antibody, IgG4, V domains shown, IgG4 backbone) VH: not shown VL: SYVLTQPPSVSVAPGQTARITCGGNNIGSESVHWYQQKPGQAPVLVVYDSSDRPSGIPERFSGSNSGNTATLTISRVEAGDEADYYCQVWDGNSDHVVFGGGTKLTVLG
0.00013	110	0.122	16H7 light chain variant D50R (antibody, IgG4, V domains shown, IgG4 backbone) VH: not shown VL: SYVLTQPPSVSVAPGQTARITCGGNNIGSESVHWYQQKPGQAPVLVVYDRSDRPSGIPERFSGSNSGNTATLTISRVEAGDEADYYCQVWDGNSDHVVFGGGTKLTVLG
